Six variants from IntAct's records for PubMed 25218446 can be followed below.

The labels stand for the following.
B1: Pre-mRNA leakage protein 1 (Saccharomyces cerevisiae), Q07930 (parent)
chain: MFHRRKRPYNTRNYGHDDKKFKSQYIDIMPDFSPSGLLELESNNKEGIALKHVEPQDAISPDNYMDMLGLEARDRTMYELVIYRKNDKDKGPWKRYDLNGRSCYLVGRELGHSLDTDLDDRTEIVVADIGIPEETSSKQHCVIQFRNVRGILKCYVMDLDSSNGTCLNNVVIPGARYIELRSGDVLTLSEFEEDNDYELIFMNV
partner: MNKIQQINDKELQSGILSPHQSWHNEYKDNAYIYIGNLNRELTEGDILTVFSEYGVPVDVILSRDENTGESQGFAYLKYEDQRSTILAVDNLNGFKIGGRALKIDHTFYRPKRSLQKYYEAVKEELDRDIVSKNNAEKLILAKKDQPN
B2: Pre-mRNA-splicing factor CWC26 (Saccharomyces cerevisiae), P46947 (parent)
chain: MALHQYLSETYGPTKPKNKTKKKKKESKSDANSDKTSLIVKERLSTLQQEQEKSGVASFSKFDKQKSKNIWKNLETNELSHAITHPSASSITGNESKNDLKEIRAQEPLVTVADKSKTRKTIYRDAQGHKIQEDSKIDDSSFSRSKYEDEKAAEREQYLKNLNMGDVQKLGINVDAHDKKKNQTASSLTIEDPAITFTHDKERTVKTSLLGRKLYDKPAPENRFAIMPGSRWDGVHRSNGFEEKWFAKQNEINEKKVQSYTLQEDY
partner: B1 partner

In one experiment the parent is B1. Conditions: with ist3_yeast IST3, P40565.
Consider F32A, for which the “effect of a mutation on the interaction” value is on record as “disrupting interaction strength”.

Turning to L38A, the “effect of a mutation on the interaction” value is “decreasing interaction strength”.

A further experiment covers variants of B2. To be noted: with ist3_yeast IST3, P40565.
With R237A, the “effect of a mutation on the interaction” value was “disrupting interaction strength”.

As to F224A, the “effect of a mutation on the interaction” value is reported as “decreasing interaction strength”.

Regarding V235A, the “effect of a mutation on the interaction” value is “decreasing interaction strength”.

Consider W232A, for which the “effect of a mutation on the interaction” value is “disrupting interaction strength”.
